This note sets out measurements from patent US20070286806A1, “Methods and Compositions for Modulating a Steroid Receptor” (Mount Sinai Hospital, priority 2004, published 2007).

This assay has as its target T1, ERβ (Homo sapiens, UniProt Q92731).
T1 construct: expressed in transfected cells; host or cells: SHM (Syrian hamster myocyte) cells
The assay is described as follows: ERβ transactivation, 3xERE luciferase reporter in SHM cells. The assay is classed as cell-based. The conditions noted are these: 3xERE promoter. On the procedure:
FIG. 4. PSF inhibit transactivation of PR but not estrogen receptor (ER). (A) SHM cells were transient cotransfected with PRA or PRB expression vectors with or without increasing dose (0.05, 0.1 and 0.2 μg) of His-PSF, together with 3×PRE (upper) or MMTV (lower) luciferase reporter vector. Four hours after transfection, culture medium was replaced with fresh DMEM containing 10 nM progesterone and the incubation continued for at least 30 hours. (B) SHM cells were transiently cotransfected with ERα or ERβ expression vector with (0.2 μg) or without His-PSF, together with 3×ERE luciferase reporter vector. Four hours after transfection, culture medium was replaced with fresh DMEM with (solid bar) or without (empty bar) 10 nM estrodial and incubation continued for at least 30 hours. Luciferase activity was measured and normalized by β-galatosidase activity. […]
For immunoprecipitation of the endogenous PR and PSF, T47D cells cultured in 150 mm dishes were lysed in 800 μl NETN buffer containing 150 mM NaCl plus protease inhibitor cocktail. […] Gels were treated with Enhancer (NEN, Boston, US) dried and analyzed by autoradiography. • Cell culture and transient transfection: SHM cells and 293T cells were maintained in DMEM plus 5% FCS (Sigma) as described before (22). […] Luciferase activity was determined by using the luciferin reagent (Promega) according to manufacture's protocol. […]
A general note: A reporter such as luciferase makes a cellular process visible.

T1 sequence (Q92731 whole entry, species assumed): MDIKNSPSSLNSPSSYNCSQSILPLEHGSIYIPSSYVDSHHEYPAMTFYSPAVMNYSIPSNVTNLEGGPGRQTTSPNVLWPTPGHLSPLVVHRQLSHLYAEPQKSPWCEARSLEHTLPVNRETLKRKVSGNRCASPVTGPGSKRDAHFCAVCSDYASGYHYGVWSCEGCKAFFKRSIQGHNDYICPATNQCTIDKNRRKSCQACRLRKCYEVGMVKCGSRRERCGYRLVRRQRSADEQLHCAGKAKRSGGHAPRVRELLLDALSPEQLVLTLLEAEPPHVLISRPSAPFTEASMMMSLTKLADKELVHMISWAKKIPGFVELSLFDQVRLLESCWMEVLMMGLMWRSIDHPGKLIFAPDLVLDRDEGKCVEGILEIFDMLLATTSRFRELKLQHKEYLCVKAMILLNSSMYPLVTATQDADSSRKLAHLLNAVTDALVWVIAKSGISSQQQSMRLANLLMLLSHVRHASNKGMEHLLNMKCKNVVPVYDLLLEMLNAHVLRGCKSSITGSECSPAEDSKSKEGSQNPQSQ

B1: polypyrimidine tract binding protein-associated splicing factor (protein)
chain: MSRDRFRSRGGGGGGFHRRGGGGGRGGLHDFRSPPPGMGLNQNRGPMGPGPGQSGPKPPIPPPPPHQQQQQPPPQQPPPQQPPPHQPPPHPQPHQQQQPPPPPQDSSKPVVAQGPGPAPGVGSAPPASSSAPPATPPTSGAPPGSGPGPTPTPPPAVTSAPPGAPPPTPPSSGVPTTPPQAGGPPPPPAAVPGPGPGPKQGPGPGGPKGGKMPGGPKPGGGPGLSTPGGHPKPPHRGGGEPRGGRQHHPPYHQQHHQGPPPGGPGGRSEEKISDSEGFKANLSLLRRPGEKTYTQRCRLFVGNLPADITEDEFKRLFAKYGEPGEVFINKGKGFGFIKLESRALAEIAKAELDDTPMRGRQLRVRFATHAAALSVRNLSPYVSNELLEEAFSQFGPIERAVVIVDDRGRSTGKGIVEFASKPAARKAFERCSEGVFLLTTTPRPVIVEPLEQLDDEDGLPEKLAQKNPMYQKERETPPRFAQHGTFEYEYSQRWKSLDEMEKQQREQVEKNMKDAKDKLESEMEDAYHEHQANLLRQDLMRRQEELRRMEELHNQEMQKRKEMQLRQEEERRRREEEMMIRQREMEEQMRRQREESYSRMGYMDPRERDMRMGGGGAMNMGDPYGSGGQKFPPLGGGGGIGYEANPGVPPATMSGSMMGSDMRTERFGQGGAGPVGGQGPRGMGPGTPAGYGRGREEYEGPNKKPRF
notes: expressed from transfected His-PSF vector or in vitro translated
Turning to B1, the “inhibitory effects on ERβ” value was “not observed”.
